Laboratory results as given in article PMC7085222, “TBC1D25 Regulates Cardiac Remodeling Through TAK1 Signaling Pathway” (International Journal of Biological Sciences, 2020).

T1: Flag-tagged TBC1 Domain Family Member 25 (TBC1D25) (UniProt Q3MII6-1 1-688)
T1 construct: Vector pcDNA5-flag or pHAGE-3xflag; The reverse primer carries the stop codon, so the tag is probably N-terminal; also called Flag-TBC1D25; OATL1; source: HEK-293T, transfected, in lysate (co-IP); immunopurified and eluted with FLAG peptide (GST pull-down)
T1 sequence (looked up): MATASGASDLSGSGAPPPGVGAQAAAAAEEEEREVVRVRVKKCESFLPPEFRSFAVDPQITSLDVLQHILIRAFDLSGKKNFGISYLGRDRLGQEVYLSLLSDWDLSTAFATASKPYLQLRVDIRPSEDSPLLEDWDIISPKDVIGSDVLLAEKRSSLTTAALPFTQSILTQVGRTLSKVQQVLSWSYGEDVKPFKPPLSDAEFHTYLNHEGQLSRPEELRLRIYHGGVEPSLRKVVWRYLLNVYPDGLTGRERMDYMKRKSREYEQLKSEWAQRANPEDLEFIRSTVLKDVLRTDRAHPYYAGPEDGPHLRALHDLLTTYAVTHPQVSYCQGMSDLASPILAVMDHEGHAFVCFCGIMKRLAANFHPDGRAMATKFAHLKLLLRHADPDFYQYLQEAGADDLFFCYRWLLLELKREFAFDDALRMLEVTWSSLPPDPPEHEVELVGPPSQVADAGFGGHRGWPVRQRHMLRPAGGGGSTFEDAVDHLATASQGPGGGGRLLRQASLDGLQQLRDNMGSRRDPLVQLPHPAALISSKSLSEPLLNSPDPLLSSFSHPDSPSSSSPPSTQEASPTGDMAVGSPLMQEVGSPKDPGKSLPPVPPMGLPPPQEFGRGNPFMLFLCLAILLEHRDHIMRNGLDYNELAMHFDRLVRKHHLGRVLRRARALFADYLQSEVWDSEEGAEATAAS

T2: GST-HA-TBC1D25 (UniProt Q3MII6-1 1-688)
T2 construct: also called OATL1
T2 sequence (looked up): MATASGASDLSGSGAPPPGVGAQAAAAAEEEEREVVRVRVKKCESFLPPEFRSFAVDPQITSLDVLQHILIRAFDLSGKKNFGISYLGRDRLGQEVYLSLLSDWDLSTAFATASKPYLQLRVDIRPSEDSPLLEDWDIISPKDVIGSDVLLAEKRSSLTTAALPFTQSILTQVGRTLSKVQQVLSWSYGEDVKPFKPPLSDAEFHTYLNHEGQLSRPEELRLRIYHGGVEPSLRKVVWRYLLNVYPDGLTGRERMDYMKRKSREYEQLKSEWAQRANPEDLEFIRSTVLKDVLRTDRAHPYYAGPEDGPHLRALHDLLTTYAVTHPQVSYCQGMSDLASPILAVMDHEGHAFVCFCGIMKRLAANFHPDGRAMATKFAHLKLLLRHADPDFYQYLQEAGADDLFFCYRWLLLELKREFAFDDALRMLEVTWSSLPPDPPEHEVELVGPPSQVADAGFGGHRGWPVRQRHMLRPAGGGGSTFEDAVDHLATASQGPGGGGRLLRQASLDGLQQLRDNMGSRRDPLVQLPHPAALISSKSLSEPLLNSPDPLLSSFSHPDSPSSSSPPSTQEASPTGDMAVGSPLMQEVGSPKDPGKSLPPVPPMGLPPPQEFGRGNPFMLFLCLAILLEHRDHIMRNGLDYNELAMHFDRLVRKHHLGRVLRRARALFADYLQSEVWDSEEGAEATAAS


How the values were obtained:
[1] = target: T1, Flag-tagged TBC1 Domain Family Member …; test: pull-down; GST-HA-tagged protein from E. coli extracts held on glutathione-sepharose 4B beads, washed with PBS, incubated 4 h at 4 C with immunopurified Flag-tagged protein; washed with NaCl wash buffer; Western blot; GST tag as negative control; settings: both partners purified
GST-HA-TBC1D25 = target: T2, GST-HA-TBC1D25; test: as above; settings: both partners purified

Row | binding result [1] | binding result (GST-HA-TBC1D25) | Binder
1 | binds | – | GST-HA-TAK1 (enzyme, UniProt O43318-2 1-579, looked up, also called pGEX-4T-1-GST-HA-TAK1; MAP3K7) MSTASAASSSSSSSAGEMIEAPSQVLNFEEIDYKEIEVEEVVGRGAFGVVCKAKWRAKDVAIKQIESESERKAFIVELRQLSRVNHPNIVKLYGACLNPVCLVMEYAEGGSLYNVLHGAEPLPYYTAAHAMSWCLQCSQGVAYLHSMQPKALIHRDLKPPNLLLVAGGTVLKICDFGTACDIQTHMTNNKGSAAWMAPEVFEGSNYSEKCDVFSWGIILWEVITRRKPFDEIGGPAFRIMWAVHNGTRPPLIKNLPKPIESLMTRCWSKDPSQRPSMEEIVKIMTHLMRYFPGADEPLQYPCQYSDEGQSNSATSTGSFMDIASTNTSNKSDTNMEQVPATNDTIKRLESKLLKNQAKQQSESGRLSLGASRGSSVESLPPTSEGKRMSADMSEIEARIAATTGNGQPRRRSIQDLTVTGTEPGQVSSRSSSPSVRMITTSGPTSEKPTRSHPWTPDDSTDTNGSDNSIPMAYLTLDHQLQPLAPCPNSKESMAVFEQHCKMAQEYMKVQTEIALLLQRKQELVAELDQDEKDQQNTSRLVQEHKKLLDENKSLSTYYQQCKKQLEVIRSQQQKRQGTS
2 | – | binds | Flag-TAK1, immunopurified (enzyme, UniProt O43318-2 1-579, looked up, Probably expressed in HEK-293T cells like the other Flag constructs; also called MAP3K7; source: immunopurified, eluted with FLAG peptide) MSTASAASSSSSSSAGEMIEAPSQVLNFEEIDYKEIEVEEVVGRGAFGVVCKAKWRAKDVAIKQIESESERKAFIVELRQLSRVNHPNIVKLYGACLNPVCLVMEYAEGGSLYNVLHGAEPLPYYTAAHAMSWCLQCSQGVAYLHSMQPKALIHRDLKPPNLLLVAGGTVLKICDFGTACDIQTHMTNNKGSAAWMAPEVFEGSNYSEKCDVFSWGIILWEVITRRKPFDEIGGPAFRIMWAVHNGTRPPLIKNLPKPIESLMTRCWSKDPSQRPSMEEIVKIMTHLMRYFPGADEPLQYPCQYSDEGQSNSATSTGSFMDIASTNTSNKSDTNMEQVPATNDTIKRLESKLLKNQAKQQSESGRLSLGASRGSSVESLPPTSEGKRMSADMSEIEARIAATTGNGQPRRRSIQDLTVTGTEPGQVSSRSSSPSVRMITTSGPTSEKPTRSHPWTPDDSTDTNGSDNSIPMAYLTLDHQLQPLAPCPNSKESMAVFEQHCKMAQEYMKVQTEIALLLQRKQELVAELDQDEKDQQNTSRLVQEHKKLLDENKSLSTYYQQCKKQLEVIRSQQQKRQGTS
